Assay results taken from US6723321B2 (priority 1998, dated 2004).
Where two headings read alike, the source gives them in different places.

How the values were obtained:
RhlI [1] = biological target: T1, RhlI (Pseudomonas aeruginosa, UniProt P54291); type: biochemical; conditions: acyl substrate varied, SAM held at 95 μM; for Km: read-out: Apparent Km
RhlI [2] = biological target: T1, RhlI; assay: radioactive in vitro assay for RhlI activity (C14-labeled SAM); type: biochemical; conditions: for Activity in radioactive assay: potential acyl group substrates, 61 μM SAM as co-substrate
RhlI [3] = biological target: T1, RhlI; type: biochemical
[4] = test system: CCCC(=O)SCCNC(=O)CCNC(=O)[C@H](O)C(C)(C)COP(=O)(O)OP(=O)(O)OC[C@H]1O[C@@H](n2cnc3c(N)ncnc32)[C@H](O)[C@@H]1OP(=O)(O)O; assay: purified protein, by the assay type; conditions: other: acyl substrate varied, SAM held at 95 μM
RhlI [5] = biological target: T1, RhlI; type: biochemical; conditions: 61 μM SAM as co-substrate; tested in the R. solanacearum bioassay
[6] = potential acyl group substrates, 61 μM SAM as co-substrate

T1 sequence (P54291 whole entry, looked up): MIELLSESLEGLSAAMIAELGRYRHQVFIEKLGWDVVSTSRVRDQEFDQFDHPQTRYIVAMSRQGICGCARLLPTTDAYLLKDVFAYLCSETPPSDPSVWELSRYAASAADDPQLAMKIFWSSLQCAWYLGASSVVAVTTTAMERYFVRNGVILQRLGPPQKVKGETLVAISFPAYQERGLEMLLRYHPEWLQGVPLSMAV

In the case of `CCCC(=O)SCCNC(=O)CCNC(=O)[C@H](O)C(C)(C)COP(=O)(O)OP(=O)(O)OC[C@H]1O[C@@H](n2cnc3c(N)ncnc32)[C@H](O)[C@@H]1OP(=O)(O)O` [butyryl-CoA], the “Apparent Vmax” value (RhlI [1]) is reported as 2.1 mol of butyryl HSL min^−1 mol^−1 of RhlI, the “Activity in radioactive assay” value (RhlI [2]) is reported as 82 nmoles butyryl HSL formed min^−1 mg^−1 and the “Activity in butyryl HSL bioassay” value (RhlI [3]; [6]) is reported as 38 nmoles butyryl HSL formed min^−1 mg^−1.
Compound RhlI (Pseudomonas aeruginosa PAO1) has a Km [4] of 230 µM.
For “octanoyl-ACP: acylated acyl carrier protein with attached octanoyl group”, the “Activity in bioassay (R. solanacearum bioassay)” value (RhlI [5]) was “not detected as a substrate”, the “Apparent Vmax” value (RhlI [1]) was 1.8 mol of butyryl HSL min^−1 mol^−1 of RhlI and the Km (RhlI [1]) was 43 µM. For the same compound, the “Activity in radioactive assay” value (RhlI [2]) was 28 nmoles butyryl HSL formed min^−1 mg^−1 and the “Activity in radioactive assay” value (RhlI [2]; listed as Octanoyl-ACP) was “demonstrated to be a substrate of RhlI”.
In the case of `N[C@@H](CCS)C(=O)O` [homocysteine], the “activity, fold less when compared to reactions containing SAM” value (RhlI [3]; butyryl HSL bioassay, amino acid substrate) is reported as “at least 150 fold” and the “Activity in butyryl HSL bioassay” value (RhlI [3]; potential amino acid substrates, 39 μM butyryl ACP as co-substrate) is reported as <2 nmoles butyryl HSL formed min^−1 mg^−1.
“hexanoyl-ACP: acylated acyl carrier protein with attached hexanoyl group” was tested, and the “Apparent Vmax” value (RhlI [1]) was 9.6 mol of butyryl HSL min^−1 mol^−1 of RhlI, the Km (RhlI [1]) was 8 µM and the “Activity in radioactive assay” value (RhlI [2]) was 263 nmoles butyryl HSL formed min^−1 mg^−1. For the same compound, the “Activity in butyryl HSL bioassay” value (RhlI [3]; [6]) was 91 nmoles butyryl HSL formed min^−1 mg^−1.
For `NC(=O)C1=CN([C@@H]2O[C@H](COP(=O)(O)OP(=O)(O)OC[C@H]3O[C@@H](n4cnc5c(N)ncnc54)[C@H](OP(=O)(O)O)[C@@H]3O)[C@@H](O)[C@H]2O)C=CC1` [NADPH], the “effect on the reaction rate” value (RhlI [2]; included with butyryl-ACP and SAM) was “slightly increase”.
With “butyryl-ACP: acylated acyl carrier protein with attached butyryl group; acyl substrate of RhlI” the Km (RhlI [1]) was 6 µM, the “Activity in radioactive assay” value (RhlI [2]) was 650 nmoles butyryl HSL formed min^−1 mg^−1 and the “Activity in butyryl HSL bioassay” value (RhlI [3]; [6]) was 532 nmoles butyryl HSL formed min^−1 mg^−1.
With `CCCCCC(=O)SCCNC(=O)CCNC(=O)[C@H](O)C(C)(C)COP(=O)(O)OP(=O)(O)OC[C@H]1O[C@@H](n2cnc3c(N)ncnc32)[C@H](O)[C@@H]1OP(=O)(O)O` [hexanoyl-CoA] the “Activity in radioactive assay” value (RhlI [2]) was 4 nmoles butyryl HSL formed min^−1 mg^−1.
